From PMC9751120 (2022)
Read-outs that look alike come from different tables or passages of the source. Each block holds one binder with its values, some of them ahead of it.

Assays:
Assay in all cases: FP
[1] = target: T1, purified full-length ΔNp63α (human, UniProt Q9H3D4-2 1-586)
T1 chain: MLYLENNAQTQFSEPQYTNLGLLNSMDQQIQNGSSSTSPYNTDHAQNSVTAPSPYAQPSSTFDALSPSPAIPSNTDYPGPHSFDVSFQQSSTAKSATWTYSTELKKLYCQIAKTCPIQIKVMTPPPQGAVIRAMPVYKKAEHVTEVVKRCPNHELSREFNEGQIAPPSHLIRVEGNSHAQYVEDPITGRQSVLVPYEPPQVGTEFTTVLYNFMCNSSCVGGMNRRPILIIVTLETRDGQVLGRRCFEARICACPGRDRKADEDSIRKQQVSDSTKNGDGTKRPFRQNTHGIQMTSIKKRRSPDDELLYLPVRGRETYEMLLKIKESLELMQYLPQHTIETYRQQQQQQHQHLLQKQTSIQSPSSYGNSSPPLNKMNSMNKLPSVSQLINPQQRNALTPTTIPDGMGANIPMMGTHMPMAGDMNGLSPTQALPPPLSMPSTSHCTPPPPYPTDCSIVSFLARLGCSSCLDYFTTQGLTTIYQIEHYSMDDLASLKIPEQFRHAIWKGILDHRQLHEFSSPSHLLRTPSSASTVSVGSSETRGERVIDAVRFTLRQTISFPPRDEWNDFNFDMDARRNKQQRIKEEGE

[2] = target: T2, purified full-length TAp63α (human)
T2 chain: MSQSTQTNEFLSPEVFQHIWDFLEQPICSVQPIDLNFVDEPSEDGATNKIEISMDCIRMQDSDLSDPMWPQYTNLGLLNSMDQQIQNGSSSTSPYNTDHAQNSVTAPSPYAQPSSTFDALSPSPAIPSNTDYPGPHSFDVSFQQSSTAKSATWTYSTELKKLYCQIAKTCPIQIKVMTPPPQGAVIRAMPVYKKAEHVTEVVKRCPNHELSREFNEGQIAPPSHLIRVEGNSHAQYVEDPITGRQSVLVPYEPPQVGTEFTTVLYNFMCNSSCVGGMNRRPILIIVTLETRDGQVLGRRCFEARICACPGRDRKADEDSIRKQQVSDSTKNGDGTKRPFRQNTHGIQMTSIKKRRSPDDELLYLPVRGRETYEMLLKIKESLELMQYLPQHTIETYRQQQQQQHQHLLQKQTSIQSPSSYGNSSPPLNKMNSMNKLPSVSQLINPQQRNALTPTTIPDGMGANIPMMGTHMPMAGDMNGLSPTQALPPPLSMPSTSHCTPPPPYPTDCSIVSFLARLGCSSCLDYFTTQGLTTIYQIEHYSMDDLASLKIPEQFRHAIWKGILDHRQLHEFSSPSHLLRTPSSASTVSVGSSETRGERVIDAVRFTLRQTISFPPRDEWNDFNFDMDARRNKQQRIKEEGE

[3] = target: T1, purified full-length ΔNp63α
[4] = target: T2, purified full-length TAp63α
[5] = target: T1, purified full-length ΔNp63α
[6] = target: T2, purified full-length TAp63α

- Kd [1]: 67.9 nM
- Kd [2]: 296 nM
B1: DARPin A5, Alexa 488 labeled (designed binder)
chain: GSDLGKKLLEAARAGQDDEVRILMANGADVNAQDQYGWTPLHLAAARGHLEIVEVLLKTGADVNAVDKHGNTPLPLAASVGHLEIVEVLLKAGADVNAQDQFGRTPLHLAAMWGHLEIVEVLLKHGADVNAQDKFGKTAFDISIDNGNEDIVEVLQKAAGGC
modifications: Alexa Fluor 488 C5 maleimide on the introduced C-terminal cysteine

- Kd [3]: 95.6 nM
- Kd [4]: 6160 nM
B2: DARPin 8F1, Alexa 488 labeled (designed binder)
chain: GSDLGKKLLEAARAGQDDEVRILMANGADVNAADWLGYTPLHLAAWYGHLEIVEVLLKTGADVNARDAYGITPLHLAAYYGHLEIVEVLLKHGADVNAQDKFGKTPFDLAIDNGNEDIAEVLQKAAGGC
modifications: Alexa Fluor 488 C5 maleimide on the introduced C-terminal cysteine

- Kd [5]: 202 nM
- Kd [6]: 734 nM
B3: DARPin C14, Alexa 488 labeled (designed binder)
chain: GSDLGKKLLEAAQIGQLDEVRILMANGADVNASDTDGLTPLHLAAASGHLEIVEVLLKTGADVNATDKWGDTPLHLAASQGHLEIVEVLLKAGADVNATDFTGNTPLHLAAYIGHLEIVEVLLKHGADVNAQDKFGKTPFDLAIDNGNEDIAEVLQKAAGGC
modifications: Alexa Fluor 488 C5 maleimide on the introduced C-terminal cysteine
